Patent US20060148030A1, “Nuclear receptor err y 3” (FUJISAWA PHARMACEUTICAL CO., LTD, priority 2002, published 2006)

Target: T1, PPARγ (Homo sapiens, UniProt P37231)
T1 construct: expressed in transfected cells; host or cells: CV-1 (African green monkey kidney)
T1 sequence (P37231 1-477 isoform P37231-2): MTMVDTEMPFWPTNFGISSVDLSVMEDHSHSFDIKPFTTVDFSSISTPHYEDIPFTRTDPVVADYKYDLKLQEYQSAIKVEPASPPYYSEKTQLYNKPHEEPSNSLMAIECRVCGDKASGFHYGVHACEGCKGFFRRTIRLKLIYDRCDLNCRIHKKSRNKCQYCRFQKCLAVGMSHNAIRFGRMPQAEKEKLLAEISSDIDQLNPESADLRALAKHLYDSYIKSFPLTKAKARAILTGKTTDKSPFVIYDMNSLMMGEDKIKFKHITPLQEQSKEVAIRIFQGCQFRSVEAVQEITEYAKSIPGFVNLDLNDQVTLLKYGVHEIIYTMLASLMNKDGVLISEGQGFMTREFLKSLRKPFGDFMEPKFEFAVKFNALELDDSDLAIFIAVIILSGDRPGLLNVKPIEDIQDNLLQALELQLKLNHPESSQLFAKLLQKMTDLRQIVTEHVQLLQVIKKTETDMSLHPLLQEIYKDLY
T1 sequence (P19793 1-462 partner): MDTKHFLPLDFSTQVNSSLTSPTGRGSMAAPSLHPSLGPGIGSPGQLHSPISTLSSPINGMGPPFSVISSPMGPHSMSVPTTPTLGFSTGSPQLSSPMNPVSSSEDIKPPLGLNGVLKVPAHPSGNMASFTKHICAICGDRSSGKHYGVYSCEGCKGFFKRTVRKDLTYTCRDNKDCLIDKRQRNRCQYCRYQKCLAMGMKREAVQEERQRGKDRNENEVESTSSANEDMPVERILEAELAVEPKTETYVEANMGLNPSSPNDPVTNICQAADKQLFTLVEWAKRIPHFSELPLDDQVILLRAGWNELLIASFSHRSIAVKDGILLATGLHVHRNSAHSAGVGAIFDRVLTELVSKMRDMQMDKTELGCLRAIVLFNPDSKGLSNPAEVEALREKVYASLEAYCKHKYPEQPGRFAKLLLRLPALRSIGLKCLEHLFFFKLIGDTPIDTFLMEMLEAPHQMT
Test: Reporter gene assay, ERRγ3 coexisted with PPARγ, pGVP2-PPRE1 in CV-1 cells
Type: cell-based
Conditions: 10^−6 M rosiglitazone, FIG. 24
Procedure: Transfection was performed as follows: CV-1 cells were resuspended in DMEM supplemented with 10% fetal bovine serum, 2000 U/l of penicillin G, and 100 mg/l of streptomycin to a concentration of 2×10^5 cells/2.5 ml. This was then seeded to a 6-well plate at 2.5 ml per well, and incubated for 18-24 hours in a CO2 incubator at 37° C. and 5% CO2. 1 μg of each of the expression plasmids for the transcription factors, the luciferase reporter plasmid, and another luciferase reporter plasmid used for normalization of the measured values (pRL-TK), were dissolved in Opti-MEM (Gibco BRL), to a total of 150 μl. […] Luciferase activity was measured using the Dual-Luciferase™ Reporter Assay System (Promega). […] The protocol for measurement was as follows: 50 μl of Luciferase Assay Reagent II was added to each well, stirred for 0.3 seconds, and measured for one second. 50 μl of Stop&Glo™ Reagent was then added, stirred for 0.3 seconds, and measured for one second. The measured values for firefly luciferase activity were corrected by dividing by the value for the Renilla luciferase activity, the internal control. Average values and standard errors were calculated from triplicate samples.
The effect of ligands on the function of ERRγ3 in enhancing the transcriptional activation function of peroxisome proliferator activated receptor (PPAR) α, β, or γ was evaluated using the reporter gene assay (FIG. 24). […]

B1: ERRγ3: novel ERRγ isoform, nuclear receptor protein of 396 amino acids (SEQ ID NO: 2) lacking part of the DNA binding domain (protein, listed as Homo sapiens)
chain: MSNKDRHIDSSCSSFIKTEPSSPASLTDSVNHHSPGGSSDASGSYSSTMNGHQNGLDSPPLYPSAPILGGSGPVRKLYDDCSSTIVEDPQTKCEYMLNSMPKRLCLVCGDIASGYHYGVASCEACKAFFKRTIQGVRLDRVRGGRQKYKRRIDAENSPYLNPQLAQPAKKPYNKIVSHLLVAEPEKIYAMPDPTVPDSDIKALTTLCDLADRELVVIIGWAKHIPGFSTLSLADQMSLLQSAWMEILILGVVYRSLSFEDELVYADDYIMDEDQSKLAGLLDLNNAILQLVKKYKSMKLEKEEFVTLKAIALANSDSMHIEDVEAVQKLQDVLHEALQDYEAGQHMEDPRRAGKMLMTLPLLRQTSTKAVQHFYNIKLEGKVPMHKLFLEMLEAKV
- modifying effect on the transcriptional stimulation activity of PPARγ: did not show any significant modifying effect
